Tests used:
[1] = target: T1, CitAGacS649 (chimeric protein: GacS649 with its PDC domain replaced by the PDC domain of CitA from K (Pseudomonas aeruginosa | Klebsiella …, UniProt P52687 55-173, amine-reactive AlexaFluor 488 label (in the MST))); test: MST; no citrate
[2] = target: T1, CitAGacS649 (chimeric protein: GacS649 …); test: MST; 0.01 M citrate

B1: RetSHK (histidine kinase region of the sensor histidine kinase RetS, residues 413-649) (domain or fragment)
chain: QTKAEFLAKISHEIRTPMNGVLGMTELLLGTPLSAKQRDYVQTIHSAGNELLTLINEILDISKLESGQIELDEVQFDLNALIEDCLDIFRVKAEQQRIELISFTQPQVPRVIGGDPTRLRQVVLSLLDNAFKQTEEGEILLVVALDDQGETPRLRIAVQDSGHPFDAKEREALLTAELHSGDFLSASKLGSHLGLIIARQLVRLMGGEFGIQSGSSQGTTLSLTLPLDPQQLENPTA
B1 showed a Kd [1] of 11 µM and a Kd [2] of 46 µM.

Source: paper PMC12148439 (2025)
